Measurements as given in article PMC8786865 (2022).

Target: SARS-CoV-2 spike protein receptor-binding domain (RBD) (SARS-CoV-2, UniProt P0DTC2 319-541)
Assay: SPR

B1: #41 (antibody, V domains shown)
VH: QVQLVQSGAEVKKPGASVKVSCKVSGYTSPATIHWVRQAPGKGLEWMGGISPYKGDTIYAQKFQGRVTMTEDTSTDTAYMELSSLKSEDTAVYYCAKDSYYYDSSGSGLGGGFDYWGQGTLVTVSS
VL: DIQMTQSPSSVSASVGDRVTITCRASRDISSYLAWYQQKPGKAPKLLIYGASTRASGVPSRFSGSGSGTDFTLTISSLQPEDFANYYCLQYSIYPWTFGGGTKVEIK
Kd: 0.295 nM
